From article PMC6548343 (Journal of Molecular Cell Biology, 2018) come the findings set out here.

Several values for one entry are separate records, joined by “and”; a condition that tells them apart may be missing. Equal values may be shown once.

The series concerns the molecule itself. The series is described as follows: EM classification and 3D reconstruction; INO80 sub-complexes and separated Rvb1/Rvb2 rings in the Mono Q fraction of the Ino80-2×FLAG purification.

B1: Rvb1/Rvb2 (complex, S. cerevisiae)
chain 1: MVAISEVKENPGVNSSNSGAVTRTAAHTHIKGLGLDESGVAKRVEGGFVGQIEAREACGVIVDLIKAKKMSGRAILLAGGPSTGKTALALAISQELGPKVPFCPLVGSELYSVEVKKTETLMENFRRAIGLRIKETKEVYEGEVTELTPEDAENPLGGYGKTISHVIVGLKSAKGTKTLRLDPTIYESIQREKVSIGDVIYIEANTGAVKRVGRSDAYATEFDLETEEYVPLPKGEVHKKKEIVQDVTLHDLDVANARPQGGQDVISMMGQLLKPKKTEITEKLRQEVNKVVAKYIDQGVAELIPGVLFIDEVNMLDIEIFTYLNKALESNIAPVVVLASNRGMTTVRGTEDVISPHGVPPDLIDRLLIVRTLPYDKDEIRTIIERRATVERLQVESSALDLLATMGTETSLRYALQLLAPCGILAQTSNRKEIVVNDVNEAKLLFLDAKRSTKILETSANYL
chain 2: MSIQTSDPNETSDLKSLSLIAAHSHITGLGLDENLQPRPTSEGMVGQLQARRAAGVILKMVQNGTIAGRAVLVAGPPSTGKTALAMGVSQSLGKDVPFTAIAGSEIFSLELSKTEALTQAFRKSIGIKIKEETELIEGEVVEIQIDRSITGGHKQGKLTIKTTDMETIYELGNKMIDGLTKEKVLAGDVISIDKASGKITKLGRSFARSRDYDAMGADTRFVQCPEGELQKRKTVVHTVSLHEIDVINSRTQGFLALFTGDTGEIRSEVRDQINTKVAEWKEEGKAEIVPGVLFIDEVHMLDIECFSFINRALEDEFAPIVMMATNRGVSKTRGTNYKSPHGLPLDLLDRSIIITTKSYNEQEIKTILSIRAQEEEVELSSDALDLLTKTGVETSLRYSSNLISVAQQIAMKRKNNTVEVEDVKRAYLLFLDSARSVKYVQENESQYIDDQGNVQISIAKSADPDAMDTTE
notes: Rvb1, AAA+ ATPase subunit, S. cerevisiae; Rvb2, AAA+ ATPase subunit, S. cerevisiae; Seen as a hexameric ring in INO80 and as free hexamers and dodecamers; The fitted models PDB 2XSZ and 5OAF are of the human proteins; also called Rvb1/Rvb2 hexameric ring; Rvb1-Rvb2 ring; source: endogenous, S. cerevisiae, co-purified with tagged Ino80 (FLAG resin, Mono Q)
Take B1: the stoichiometry N (in general, a count of units in the complex or per binding partner) is 12 and 6.
